Measured values from paper PMC6143168 (Nature genetics, 2018).

Molecular target: T1, EsxW wildtype (2Thr) (Mycobacterium tuberculosis H37Rv, UniProt P9WNI3 1-98)
T1 sequence: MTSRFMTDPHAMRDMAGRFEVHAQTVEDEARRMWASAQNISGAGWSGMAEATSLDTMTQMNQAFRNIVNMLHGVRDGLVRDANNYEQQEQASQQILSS
Assay: MST

B1: EsxV (natural protein)
chain: MTINYQFGDVDAHGAMIRAQAGSLEAEHQAIISDVLTASDFWGGAGSAACQGFITQLGRNFQVIYEQANAHGQKVQAAGNNMAQTDSAVGSSWA
B1 gave a Kd of 600 nM.
